Results published in PMC5957299.

Legend:
[1] = anti-FLAG IP/blot of media, TM 2 μg/ml 12 h; settings: glycan lost; control: same construct, untreated
[2] = FVIII antigen ELISA, 293T conditioned media; settings: control: WT full-length FVIII
[3] = FVIII antigen ELISA, 293T cell extracts; settings: control: WT full-length FVIII
[4] = chromogenic activity / ELISA antigen ratio in media; settings: control: WT full-length FVIII
[5] = Coatest SP4 chromogenic assay, 293T media; settings: control: WT full-length FVIII
[6] = anti-FLAG IP/blot of 293T conditioned media; settings: glycan lost

Coagulation factor VIII (FVIII): TM, M614T A2 domain
expression_or_secretion [1]: no change

Coagulation factor VIII (FVIII): TM, I566T A2 domain
expression_or_secretion [1]: decreases

Coagulation factor VIII (FVIII): TM, A469T A2 domain
expression_or_secretion [1]: increases

Coagulation factor VIII (FVIII): TM, G701S A2 domain
expression_or_secretion [1]: decreases

Coagulation factor VIII (FVIII): TM, A469S A2 domain
expression_or_secretion [1]: increases

Coagulation factor VIII (FVIII): TM, WT C domain
expression_or_secretion [1]: decreases

Coagulation factor VIII (FVIII): D2131N
expression_or_secretion, percent_of_wt ([2]; glycan gained): no change | expression_or_secretion, percent_of_wt ([3]; glycan gained): no change | other: relative (specific) cofactor activity, percent_of_wt ([4]; glycan gained): decreases | other: cofactor (coagulant) activity in conditioned media, percent_of_wt ([5]; glycan gained): decreases

Coagulation factor VIII (FVIII): W2062S
expression_or_secretion, percent_of_wt ([2]; glycan gained): no change | expression_or_secretion, percent_of_wt ([3]; glycan gained): no change | other: relative (specific) cofactor activity, percent_of_wt ([4]; glycan gained): decreases | other: cofactor (coagulant) activity in conditioned media, percent_of_wt ([5]; glycan gained): decreases

Coagulation factor VIII (FVIII): N2118Q
expression_or_secretion ([6]; control: WT C domain): decreases | expression_or_secretion, percent_of_wt ([2]; glycan lost): no change | expression_or_secretion, percent_of_wt ([3]; glycan lost): no change | other: relative (specific) cofactor activity, percent_of_wt ([4]; glycan lost): no change | other: cofactor (coagulant) activity in conditioned media, percent_of_wt ([5]; glycan lost): no change

Coagulation factor VIII (FVIII): N2118Q + D2131N
expression_or_secretion ([6]; control: D2131N C domain): abolishes
